Measurements: patent US20240352145A1, “EFFICACY OF ANTI-TROP-2-SN-38 ANTIBODY DRUG CONJUGATES FOR THERAPY OF TUMORS RELAPSED/REFRACTORY TO CHECKPOINT INHIBITORS” (Immunomedics, Inc., priority 2016, published 2024)
Like-named read-outs stand apart in the source and are kept apart here.

Columns and labels:
Capan-1 = test: Cytotoxicity (MTS), Example 6, Capan-1; assay type: cell-based, human; settings: Capan-1, 96 h
Procedure: One day prior to adding the ADCs, cells were harvested from tissue culture and plated into 96-well plates. […] Plates were incubated at 37° C. for 96 h. […] Growth inhibition was measured as a percent of growth relative to untreated cells using Microsoft Excel and Prism software (non-linear regression to generate sigmoidal dose response curves which yield IC50-values.

[1] = test system: BXPC3 model of human pancreatic cancer; settings: mouse, in vivo, sc
[2] = test system: triple-negative breast cancer
[3] = test system: diverse metastatic cancers
Procedure: To optimize cumulative treatment with minimal delays, phase II is focusing on 8 and 10 mg/kg (n=30 and 14, respectively).
Two ELISA methods were used to measure the clearance of the IgG (capture with anti-hRS7 idiotype antibody) and the intact conjugate (capture with anti-SN-38 IgG/probe with anti-hRS7 idiotype antibody). SN-38 was measured by HPLC.

[4] = SN-38 release at lysosomal pH; assay type: physicochemical; settings: pH 5.3 at 37° C.
[5] = test system: human pancreatic adenocarcinoma xenograft model (BxPC-3); test: Clinically-relevant dosing schemes, BxPC-3 xenograft; assay type: in vivo, mouse; settings: for TTP: untreated 5.0±2.3
From the text: In Vivo Therapeutic Studies—NCr female athymic nude (nu/nu) mice, 4-8 weeks old, were purchased from Taconic Farms (Germantown, NY). NCI-N87 gastric tumor xenografts were established by harvesting cells from tissue culture and making a final cell suspension 1:1 in matrigel (BD Bioscience; San Jose, CA), with each mouse receiving a total of 1×10^7 cells s.c. in the right flank. For BxPC-3. xenografts of 1 g were harvested, and a tumor suspension made in HBSS to a concentration of 40% tumor w/v. This suspension was mixed 1:1 with matrigel for a final tumor suspension of 20% w/v. […] For IHC, tumors were allowed to grow to approximately 0.5 cm^3 before the mice were euthanized and the tumors removed, formalin-fixed and paraffin-embedded. For therapy studies, mice were randomized into treatment groups and therapy begun when tumor volumes were approximately 0.25 cm^3.
Mice were euthanized and deemed to have succumbed to disease once tumors grew to greater than 1.0 cm^3 in size. […] Time to progression (TTP) was determined as time post-therapy initiation when the tumor grew more than 20% in size from its nadir.
A human dose of 8 mg/kg translates to a murine dose of 98.4 mg/kg, or approximately 2 mg to a 20 g mouse.

[6] = esophageal cancer, 4 assessable patients

Substance: IMMU-132
- IC50 (Capan-1): 3.5 nM
- therapeutic efficacy [1]: better therapeutic efficacy than control treatments
- decrease in sum of long diameter of target lesions ([2]; after 3 therapy cycles, 12 mg/kg then 9 mg/kg): 43%
- response ([2]; first response assessment): partial response by RECIST criteria
- dose-limiting toxicity ([3]; 8, then 12 and 18 mg/kg, days 1 and 8 of 21-day cycles): dose-limiting neutropenia
- median TTP in PDC patients ([3]; 8 wks for preceding last therapy): 11.9 wks
- stable disease, PDC ([3]; 13 CT-assessable PDC patients): 62%
- patients with long-term stable disease ([3]; 24 assessable patients, Phase I study): Over 80%
- partial response (PR) ([3]; 48 assessable patients (excluding PDC), RECIST/CT): 15%
- maximum reduction ([3]; CRC case, after 10 months of treatment): 65%
- CEA after treatment ([3]; CRC case, from 781 ng/mL): 26.5 ng/mL
- PD, number of patients ([3]; CRC, 18 assessable patients): 6
- PR, number of patients ([3]; CRC, 18 assessable patients): 1
- total response [PR+SD] ([3]; CRC, 18 assessable patients): 67%
- PD, number of patients ([3]; NSCLC, 5 assessable patients): 1
- PR, number of patients ([3]; NSCLC, 5 assessable patients): 1
- total response [PR+SD] ([3]; NSCLC, 5 assessable patients): 80%
- PD, number of patients ([3]; SCLC, 4 assessable patients): 2
- PR, number of patients ([3]; SCLC, 4 assessable patients): 2
- total response [PR+SD] ([3]; SCLC, 4 assessable patients): 50%
- PD, number of patients ([3]; TNBC, 8 assessable patients): 2
- PR, number of patients ([3]; TNBC, 8 assessable patients): 2
- total response [PR+SD] ([3]; TNBC, 8 assessable patients): 75%
- PD, number of patients ([3]; all 48 assessable patients): 14
- PR, number of patients ([3]; all 48 assessable patients): 7
- total response [PR+SD] ([3]; all 48 assessable patients): 79%
- total response [PR+SD] ([3]; all 48 assessable patients, listed as hRS7-SN-38): 71%
- PD, number of patients [3, 6]: 1
- PR, number of patients [3, 6]: 1
- total response [PR+SD] [3, 6]: 75%
- time to clearance of conjugate from serum ([3]; human, in vivo): ≤ 3 days
- Abdominal pain, Grade 3, number of patients ([3]; in vivo): 0
- Abdominal pain, Grade 4, number of patients ([3]; in vivo): 0
- Abdominal pain, TOTAL ([3]; in vivo): 11%
- Alopecia, TOTAL ([3]; in vivo): 40%
- Anemia, Grade 3 ([3]; in vivo): (4%)
- Anemia, Grade 3, number of patients ([3]; in vivo): 2
- Anemia, Grade 4, number of patients ([3]; in vivo): 0
- Anemia, TOTAL ([3]; in vivo): 13%
- Deep vein thrombosis, Grade 3 ([3]; in vivo): (2%)
- Deep vein thrombosis, Grade 3, number of patients ([3]; in vivo): 1
- Deep vein thrombosis, Grade 4, number of patients ([3]; in vivo): 0
- Deep vein thrombosis, TOTAL ([3]; in vivo): 2%
- Diarrhea, Grade 3 ([3]; in vivo): (9%)
- Diarrhea, Grade 3, number of patients ([3]; in vivo): 4
- Diarrhea, Grade 4, number of patients ([3]; in vivo): 0
- Diarrhea, TOTAL ([3]; in vivo): 47%
- Dysgeusia, Grade 3, number of patients ([3]; in vivo): 0
- Dysgeusia, Grade 4, number of patients ([3]; in vivo): 0
- Dysgeusia, TOTAL ([3]; in vivo): 15%
- Fatigue, Grade 3 ([3]; in vivo): (9%)
- Fatigue, Grade 3, number of patients ([3]; in vivo): 4
- Fatigue, Grade 4, number of patients ([3]; in vivo): 0
- Fatigue, TOTAL ([3]; in vivo): 55%
- Hypokalemia, Grade 3 ([3]; in vivo): (2%)
- Hypokalemia, Grade 3, number of patients ([3]; in vivo): 1
- Hypokalemia, Grade 4, number of patients ([3]; in vivo): 0
- Hypokalemia, TOTAL ([3]; in vivo): 11%
- Nausea, Grade 3, number of patients ([3]; in vivo): 0
- Nausea, Grade 4, number of patients ([3]; in vivo): 0
- Nausea, TOTAL ([3]; in vivo): 53%
- Neutropenia, Grade 3 ([3]; in vivo): (24%)
- Neutropenia, Grade 3, number of patients ([3]; in vivo): 11
- Neutropenia, Grade 4, number of patients (%) ([3]; in vivo): 2 (4%)
- Neutropenia, TOTAL ([3]; in vivo): 43%
- Pyrexia, Grade 3, number of patients ([3]; in vivo): 0
- Pyrexia, Grade 4, number of patients ([3]; in vivo): 0
- Pyrexia, TOTAL ([3]; in vivo): 13%
- SN-38 in the serum bound to the IgG ([3]; in vivo): > 95%
- Vomiting, Grade 3 ([3]; in vivo): (2%)
- Vomiting, Grade 3, number of patients ([3]; in vivo): 1
- Vomiting, Grade 4, number of patients ([3]; in vivo): 0
- Vomiting, TOTAL ([3]; in vivo): 32%
- WBC Decrease, Grade 3 ([3]; in vivo): (2%)
- WBC Decrease, Grade 3, number of patients ([3]; in vivo): 1
- WBC Decrease, Grade 4, number of patients ([3]; in vivo): 0
- WBC Decrease, TOTAL ([3]; in vivo): 6%
- anti-hRS7 or anti-SN-38 antibodies ([3]; in vivo): No anti-hRS7 or anti-SN-38 antibodies were detected
- anti-hRS7 or anti-SN-38 antibody response ([3]; in vivo): no anti-hRS7 or anti-SN-38 antibody response has been detected
- clearance of intact conjugate vs IgG ([3]; in vivo): cleared more quickly than the IgG
- diarrhea ≥G3 ([3]; in vivo): 9%
- fatigue ≥G3 ([3]; in vivo): 9%
- incidence of Grade 3 or higher, all other adverse events ([3]; in vivo): less than 10%
- median time to progression (TTP), PDC ([3]; in vivo): 12.7 wks
- nausea ≥G3 ([3]; in vivo): 0%
- neutropenia Grade 4 ([3]; in vivo): 4%
- neutropenia ≥Grade 3 ([3]; in vivo): 28%
- vomiting ≥G3 ([3]; in vivo): 2%
- reduction in target lesions, first CT ([3]; person, CRC, 8 mg/kg): 37%
- primary target lesion size at first CT ([3]; person, NSCLC, 5.6 cm at start, after 6th dose): 3.2 cm
- reduction in target lesions ([3]; person, SCLC, 12 mg/kg reduced to 6.8 mg/kg, after two months): 38%
- TTP ([3]; remaining 48 patients): ≥ 12.6 wks
- time for release of 50% of the SN-38 [4]: ~13 h
- anti-tumor effect vs untreated ([5]; all three dosing schemes of fractionated 2 mg): significant anti-tumor effect
- TTP ([5]; eight doses of 0.25 mg): 31.7 ± 14.5 days
- TTP ([5]; two doses of 1 mg (days 1 and 15)): 22.4 ± 10.1 days
